# Bridges are numbered along the chain shown (N, C = ends). [ ]: non-standard residue; d: D form. Gly(decyl) = CCCCCCCCCC[C@H](N)C(=O)O
# B1: cyclo(-A-K-ΣE-Y-K-A-ΣY-E-) (peptide)
# peptide: cyclo(AK[Gly(decyl)]EYKA[Gly(decyl)]YE)
# SMILES: CCCCCCCCCC[C@@H]1NC(=O)[C@H](C)NC(=O)[C@H](CCCCN)NC(=O)[C@H](Cc2ccc(O)cc2)NC(=O)[C@H](CCC(=O)O)NC(=O)[C@H](CCCCCCCCCC)NC(=O)[C@H](CCCCN)NC(=O)[C@H](C)NC(=O)[C@H](CCC(=O)O)NC(=O)[C@H](Cc2ccc(O)cc2)NC1=O
# B2: cyclo(-dF-S-C-R-dF-S-C-R-) (peptide)
# peptide: cyclo([dF]SCR[dF]SCR)
# modifications: disulfide 3-7
# SMILES: N=C(N)NCCC[C@@H]1NC(=O)[C@@H]2CSSC[C@H](NC(=O)[C@H](CO)NC(=O)[C@@H](Cc3ccccc3)NC1=O)C(=O)N[C@@H](CCCNC(=N)N)C(=O)N[C@H](Cc1ccccc1)C(=O)N[C@@H](CO)C(=O)N2
# B3: cyclo(-R-E-Σ-S-R-E-R-Σ-S-E-) (peptide)
# peptide: cyclo(RE[Gly(decyl)]SRER[Gly(decyl)]SE)
# SMILES: CCCCCCCCCC[C@@H]1NC(=O)[C@H](CCCNC(=N)N)NC(=O)[C@H](CCC(=O)O)NC(=O)[C@H](CCCNC(=N)N)NC(=O)[C@H](CO)NC(=O)[C@H](CCCCCCCCCC)NC(=O)[C@H](CCC(=O)O)NC(=O)[C@H](CCCNC(=N)N)NC(=O)[C@H](CCC(=O)O)NC(=O)[C@H](CO)NC1=O
# B4: cyclo(-dF-R-C-S-dF-R-C-S-) (peptide)
# peptide: cyclo([dF]RCS[dF]RCS)
# modifications: disulfide 3-7
# SMILES: N=C(N)NCCC[C@@H]1NC(=O)[C@@H](Cc2ccccc2)NC(=O)[C@H](CO)NC(=O)[C@@H]2CSSC[C@H](NC1=O)C(=O)N[C@@H](CO)C(=O)N[C@H](Cc1ccccc1)C(=O)N[C@@H](CCCNC(=N)N)C(=O)N2
# Key:
# [1] = test system: J774-1 cells (a macrophage cell line); experiment: Suppression of TNF secretion stimulated by LPS in a macrophage cell line, varying epitope order and stereochemistry of associating amino acids (Example 3); type: cell-based; conditions: peptide 50 ug/ml; LPS 1.25 ug/ml; LPS alone 1861.9
# Procedure: • 1. Cyclic octapeptides were prepared with the following structures: cyclo(-DF-S-ΣL-R-DF-S-ΣL-R-) cyclo(-DF-S-ΣL-R-DF-S-ΣD-R-) cyclo(-DF-S-ΣD-R-DF-S-ΣD-R-) cyclo(-DF-R-ΣL-S-DF-R-ΣL-S-) cyclo(-DF-R-ΣL-S-DF-R-ΣD-S-) cyclo(-DF-R-ΣD-S-DF-R-ΣD-S-) wherein F, S and R are the epitope-forming amino acids, ΣL represents an associating amino acid which is an L-alpha aminocarboxylic acid in which the associating functional group is a side-chain residue consisting of an unbranched —C10H21; ΣD represents an associating amino acid which is a D-alpha aminocarboxylic acid in which the associating functional group is a side-chain residue consisting an unbranched —C10H21. These cyclic oligopeptides were prepared as solutions in distilled water at a concentration of 1 mg/ml. • 2. J774-1 cells (a macrophage cell line) were plated out in all the wells of a 24-well cluster plates at a seeding density of 3×10^5 cells/ml/well (1 ml RPMI 1640 culture medium per well), and incubated overnight at 37° C. in 5% CO2/air. • 3. The following day, the solutions from step 1 were administered to eighteen wells containing cells in step 2, to give three wells each with a final concentration of 50 ug/ml. The remaining wells were left untreated. The plate was incubated for a further four hours at 37 degC. • 4. Lipopolysaccharide (from E. coli strain 0111 B4) was added to the wells receiving the octapeptide solutions, as well as three of the wells receiving no peptide. The concentration of lipopolysaccharide was 1.25 ug/ml. • 5. The plate was incubated overnight, and the following day the supernatants were assayed for TNF using a commercial ELISA kit.
# [2] = biological target: thrombin (Homo sapiens, UniProt P00734); experiment: Inhibition of enzyme activity of thrombin, fluorogenic substrate (Example 7); type: biochemical
# Procedure: 1. Cyclic oligopeptides of the following structures were synthesised as previously described, and prepared in complexed form with cyclodextrin at concentration of 1 mg/ml on Hanks Balanced Salts Solution using the procedure outlined in example 6. (i) cyclo(-R-E-Σ-S-R-E-R-Σ-S-E-) (ii) cyclo(-A-K-ΣE-Y-K-A-ΣY-E-) (iii) cyclo(-dF-R-C-S-dF-R-C-S-) (iv) cyclo(-dF-S-C-R-dF-S-C-R-)
# 2. In wells of a […] microplate, 20 ul of thrombin solution (0.01 mg/ml) were dispensed, and mixed with 60 ul of cyclic oligopeptide solution
# 3. 20 ul of the substrate boc-beta-benzyl-Asp-Pro-Arg-7-amido-4-methylcoumarin hydrochloride (0.01 mg/ml) was added to each well, and the time course of generation of […] was measured.
# [3] = biological target: thrombin; experiment: cell-based or functional assay
# [4] = time 2.0 minutes, enzyme alone 770.9, lower = more inhibition
# [5] = time 5.0 minutes, enzyme alone 1821.1
# [6] = time 10.0 minutes, enzyme alone 2163.5
# [7] = time 15.0 minutes, enzyme alone 2253.2
# [8] = time 20.0 minutes, enzyme alone 2345.8
# [9] = time 25.0 minutes, enzyme alone 2359.0
Molecule,Concentration of TNF [1] [pg/mL],Inhibition of Thrombin proteolytic activity (Fluorescence Units - Arbitrary Units) at 2.0 minutes; control (enzyme alone) 770.9 (Fluorescence Units - Arbitrary Units) [3],Inhibition of Thrombin proteolytic activity (Fluorescence Units - Arbitrary Units) at 5.0 minutes; control (enzyme alone) 1821.1 (Fluorescence Units - Arbitrary Units) [3],Inhibition of Thrombin proteolytic activity (Fluorescence Units - Arbitrary Units) at 10.0 minutes; control (enzyme alone) 2163.5 (Fluorescence Units - Arbitrary Units) [3],Inhibition of Thrombin proteolytic activity (Fluorescence Units - Arbitrary Units) at 15.0 minutes; control (enzyme alone) 2253.2 (Fluorescence Units - Arbitrary Units) [3],Inhibition of Thrombin proteolytic activity (Fluorescence Units - Arbitrary Units) at 20.0 minutes; control (enzyme alone) 2345.8 (Fluorescence Units - Arbitrary Units) [3],Inhibition of Thrombin proteolytic activity (Fluorescence Units - Arbitrary Units) at 25.0 minutes; control (enzyme alone) 2359.0 (Fluorescence Units - Arbitrary Units) [3],other results
cyclo(-DF-R-ΣD-S-DF-R-ΣD-S-),1573.3,–,–,–,–,–,–,–
cyclo(-DF-R-ΣL-S-DF-R-ΣD-S-),1625.2,–,–,–,–,–,–,–
cyclo(-DF-R-ΣL-S-DF-R-ΣL-S-),1990.4,–,–,–,–,–,–,–
cyclo(-DF-S-ΣD-R-DF-S-ΣD-R-),1438.0,–,–,–,–,–,–,–
cyclo(-DF-S-ΣL-R-DF-S-ΣD-R-),987.1,–,–,–,–,–,–,–
"cyclo(-dF-R-C-S-dF-R-C-S-) (cyclo([dF]RCS[dF]RCS); disulfide 3-7; SMILES N=C(N)NCCC[C@@H]1NC(=O)[C@@H](Cc2ccccc2)NC(=O)[C@H](CO)NC(=O)[C@@H]2CSSC[C@H](NC1=O)C(=O)N[C@@H](CO)C(=O)N[C@H](Cc1ccccc1)C(=O)N[C@@H](CCCNC(=N)N)C(=O)N2) [Example 7 (iii), cysteines in the ring are oxidised to form an internal bridge]",–,–,–,–,–,–,–,"Thrombin proteolytic activity (Fluorescence Units - Arbitrary Units) [2, 4]: 634.5 Arbitrary Units; Thrombin proteolytic activity (Fluorescence Units - Arbitrary Units) [2, 5]: 1368.8 Arbitrary Units; Thrombin proteolytic activity (Fluorescence Units - Arbitrary Units) [2, 6]: 1786.9 Arbitrary Units; Thrombin proteolytic activity (Fluorescence Units - Arbitrary Units) [2, 7]: 1980.7 Arbitrary Units; Thrombin proteolytic activity (Fluorescence Units - Arbitrary Units) [2, 8]: 2107.4 Arbitrary Units; Thrombin proteolytic activity (Fluorescence Units - Arbitrary Units) [2, 9]: 2159.7 Arbitrary Units"
"cyclo(-dF-S-C-R-dF-S-C-R-) (cyclo([dF]SCR[dF]SCR); disulfide 3-7; SMILES N=C(N)NCCC[C@@H]1NC(=O)[C@@H]2CSSC[C@H](NC(=O)[C@H](CO)NC(=O)[C@@H](Cc3ccccc3)NC1=O)C(=O)N[C@@H](CCCNC(=N)N)C(=O)N[C@H](Cc1ccccc1)C(=O)N[C@@H](CO)C(=O)N2) [Example 7 (iv), cysteines in the ring are oxidised to form an internal bridge]",–,–,–,–,–,–,–,"Thrombin proteolytic activity (Fluorescence Units - Arbitrary Units) [2, 4]: 523.2 Arbitrary Units; Thrombin proteolytic activity (Fluorescence Units - Arbitrary Units) [2, 5]: 1205.3 Arbitrary Units; Thrombin proteolytic activity (Fluorescence Units - Arbitrary Units) [2, 6]: 1586.9 Arbitrary Units; Thrombin proteolytic activity (Fluorescence Units - Arbitrary Units) [2, 7]: 1751.7 Arbitrary Units; Thrombin proteolytic activity (Fluorescence Units - Arbitrary Units) [2, 8]: 1843.1 Arbitrary Units; Thrombin proteolytic activity (Fluorescence Units - Arbitrary Units) [2, 9]: 1864.8 Arbitrary Units"
B1,–,411,816,1190,1400,1590,1670,–
B2,–,523,1210,1590,1750,1840,1860,–
B3,–,411,816,1190,1400,1590,1670,–
B4,–,634,1370,1790,1980,2110,2160,–

# From patent US9096650B2, “Cyclic oligopeptides for binding to a target ligand” (LEXCICON LIMITED, priority 2006, dated 2015)
